From publication doi:10.1101/2024.12.12.628227 (bioRxiv, 2024)

B1: parental scFv-osmY fusion protein (tilvestamab scFv) (scFv, V domains shown)
VH: EVQLVESGGGLVQPGGSLRLSCAASGYSFTDFYINWVRQAPGKGLEWVARIFPGGDNTYYNEKFKGRFTLSADTSKSTAYLQMNSLRAEDTAVYYCARRGLYYAMDYWGQGTLVTVSS
VL: DIQMTQSPSSLSASVGDRVTITCRSSQSLVHSNGIPYLHWYQQKPGKAPKLLIYRVSNRFSGVPSRFSGSGSGTDFTLTISSLQPEDFATYYCSQGTHVPPTFGQGTKVEIK
B2: tilvestamab scFv-osmY G101A (scFv, V domains shown)
VH: EVQLVESGGGLVQPGGSLRLSCAASGYSFTDFYINWVRQAPGKGLEWVARIFPGGDNTYYNEKFKGRFTLSADTSKSTAYLQMNSLRAEDTAVYYCARRALYYAMDYWGQGTLVTVSS
VL: DIQMTQSPSSLSASVGDRVTITCRSSQSLVHSNGIPYLHWYQQKPGKAPKLLIYRVSNRFSGVPSRFSGSGSGTDFTLTISSLQPEDFATYYCSQGTHVPPTFGQGTKVEIK
B3: tilvestamab scFv-osmY D32A (scFv, V domains shown)
VH: EVQLVESGGGLVQPGGSLRLSCAASGYSFTAFYINWVRQAPGKGLEWVARIFPGGDNTYYNEKFKGRFTLSADTSKSTAYLQMNSLRAEDTAVYYCARRGLYYAMDYWGQGTLVTVSS
VL: DIQMTQSPSSLSASVGDRVTITCRSSQSLVHSNGIPYLHWYQQKPGKAPKLLIYRVSNRFSGVPSRFSGSGSGTDFTLTISSLQPEDFATYYCSQGTHVPPTFGQGTKVEIK
B4: tilvestamab scFv-osmY I35A (scFv, V domains shown)
VH: EVQLVESGGGLVQPGGSLRLSCAASGYSFTDFYANWVRQAPGKGLEWVARIFPGGDNTYYNEKFKGRFTLSADTSKSTAYLQMNSLRAEDTAVYYCARRGLYYAMDYWGQGTLVTVSS
VL: DIQMTQSPSSLSASVGDRVTITCRSSQSLVHSNGIPYLHWYQQKPGKAPKLLIYRVSNRFSGVPSRFSGSGSGTDFTLTISSLQPEDFATYYCSQGTHVPPTFGQGTKVEIK
B5: tilvestamab scFv-osmY F33A (scFv, V domains shown)
VH: EVQLVESGGGLVQPGGSLRLSCAASGYSFTDAYINWVRQAPGKGLEWVARIFPGGDNTYYNEKFKGRFTLSADTSKSTAYLQMNSLRAEDTAVYYCARRGLYYAMDYWGQGTLVTVSS
VL: DIQMTQSPSSLSASVGDRVTITCRSSQSLVHSNGIPYLHWYQQKPGKAPKLLIYRVSNRFSGVPSRFSGSGSGTDFTLTISSLQPEDFATYYCSQGTHVPPTFGQGTKVEIK
B6: tilvestamab scFv-osmY L102T (scFv, V domains shown)
VH: EVQLVESGGGLVQPGGSLRLSCAASGYSFTDFYINWVRQAPGKGLEWVARIFPGGDNTYYNEKFKGRFTLSADTSKSTAYLQMNSLRAEDTAVYYCARRGTYYAMDYWGQGTLVTVSS
VL: DIQMTQSPSSLSASVGDRVTITCRSSQSLVHSNGIPYLHWYQQKPGKAPKLLIYRVSNRFSGVPSRFSGSGSGTDFTLTISSLQPEDFATYYCSQGTHVPPTFGQGTKVEIK
B7: tilvestamab scFv-osmY G233A (scFv, V domains shown)
VH: EVQLVESGGGLVQPGGSLRLSCAASGYSFTDFYINWVRQAPGKGLEWVARIFPGGDNTYYNEKFKGRFTLSADTSKSTAYLQMNSLRAEDTAVYYCARRGLYYAMDYWGQGTLVTVSS
VL: DIQMTQSPSSLSASVGDRVTITCRSSQSLVHSNGIPYLHWYQQKPGKAPKLLIYRVSNRFSGVPSRFSGSGSGTDFTLTISSLQPEDFATYYCSQATHVPPTFGQGTKVEIK
B8: tilvestamab scFv-osmY L102A (scFv, V domains shown)
VH: EVQLVESGGGLVQPGGSLRLSCAASGYSFTDFYINWVRQAPGKGLEWVARIFPGGDNTYYNEKFKGRFTLSADTSKSTAYLQMNSLRAEDTAVYYCARRGAYYAMDYWGQGTLVTVSS
VL: DIQMTQSPSSLSASVGDRVTITCRSSQSLVHSNGIPYLHWYQQKPGKAPKLLIYRVSNRFSGVPSRFSGSGSGTDFTLTISSLQPEDFATYYCSQGTHVPPTFGQGTKVEIK
B9: tilvestamab scFv-osmY F33T (scFv, V domains shown)
VH: EVQLVESGGGLVQPGGSLRLSCAASGYSFTDTYINWVRQAPGKGLEWVARIFPGGDNTYYNEKFKGRFTLSADTSKSTAYLQMNSLRAEDTAVYYCARRGLYYAMDYWGQGTLVTVSS
VL: DIQMTQSPSSLSASVGDRVTITCRSSQSLVHSNGIPYLHWYQQKPGKAPKLLIYRVSNRFSGVPSRFSGSGSGTDFTLTISSLQPEDFATYYCSQGTHVPPTFGQGTKVEIK
B10: tilvestamab scFv-osmY F33S (scFv, V domains shown)
VH: EVQLVESGGGLVQPGGSLRLSCAASGYSFTDSYINWVRQAPGKGLEWVARIFPGGDNTYYNEKFKGRFTLSADTSKSTAYLQMNSLRAEDTAVYYCARRGLYYAMDYWGQGTLVTVSS
VL: DIQMTQSPSSLSASVGDRVTITCRSSQSLVHSNGIPYLHWYQQKPGKAPKLLIYRVSNRFSGVPSRFSGSGSGTDFTLTISSLQPEDFATYYCSQGTHVPPTFGQGTKVEIK
B11: tilvestamab scFv-osmY T31A (scFv, V domains shown)
VH: EVQLVESGGGLVQPGGSLRLSCAASGYSFADFYINWVRQAPGKGLEWVARIFPGGDNTYYNEKFKGRFTLSADTSKSTAYLQMNSLRAEDTAVYYCARRGLYYAMDYWGQGTLVTVSS
VL: DIQMTQSPSSLSASVGDRVTITCRSSQSLVHSNGIPYLHWYQQKPGKAPKLLIYRVSNRFSGVPSRFSGSGSGTDFTLTISSLQPEDFATYYCSQGTHVPPTFGQGTKVEIK
B12: tilvestamab scFv-osmY L102Y (scFv, V domains shown)
VH: EVQLVESGGGLVQPGGSLRLSCAASGYSFTDFYINWVRQAPGKGLEWVARIFPGGDNTYYNEKFKGRFTLSADTSKSTAYLQMNSLRAEDTAVYYCARRGYYYAMDYWGQGTLVTVSS
VL: DIQMTQSPSSLSASVGDRVTITCRSSQSLVHSNGIPYLHWYQQKPGKAPKLLIYRVSNRFSGVPSRFSGSGSGTDFTLTISSLQPEDFATYYCSQGTHVPPTFGQGTKVEIK
B13: tilvestamab scFv-osmY G233S (scFv, V domains shown)
VH: EVQLVESGGGLVQPGGSLRLSCAASGYSFTDFYINWVRQAPGKGLEWVARIFPGGDNTYYNEKFKGRFTLSADTSKSTAYLQMNSLRAEDTAVYYCARRGLYYAMDYWGQGTLVTVSS
VL: DIQMTQSPSSLSASVGDRVTITCRSSQSLVHSNGIPYLHWYQQKPGKAPKLLIYRVSNRFSGVPSRFSGSGSGTDFTLTISSLQPEDFATYYCSQSTHVPPTFGQGTKVEIK
B14: tilvestamab scFv-osmY M106A (scFv, V domains shown)
VH: EVQLVESGGGLVQPGGSLRLSCAASGYSFTDFYINWVRQAPGKGLEWVARIFPGGDNTYYNEKFKGRFTLSADTSKSTAYLQMNSLRAEDTAVYYCARRGLYYAADYWGQGTLVTVSS
VL: DIQMTQSPSSLSASVGDRVTITCRSSQSLVHSNGIPYLHWYQQKPGKAPKLLIYRVSNRFSGVPSRFSGSGSGTDFTLTISSLQPEDFATYYCSQGTHVPPTFGQGTKVEIK
B15: tilvestamab scFv-osmY Y103A (scFv, V domains shown)
VH: EVQLVESGGGLVQPGGSLRLSCAASGYSFTDFYINWVRQAPGKGLEWVARIFPGGDNTYYNEKFKGRFTLSADTSKSTAYLQMNSLRAEDTAVYYCARRGLAYAMDYWGQGTLVTVSS
VL: DIQMTQSPSSLSASVGDRVTITCRSSQSLVHSNGIPYLHWYQQKPGKAPKLLIYRVSNRFSGVPSRFSGSGSGTDFTLTISSLQPEDFATYYCSQGTHVPPTFGQGTKVEIK
B16: tilvestamab scFv-osmY L102S (scFv, V domains shown)
VH: EVQLVESGGGLVQPGGSLRLSCAASGYSFTDFYINWVRQAPGKGLEWVARIFPGGDNTYYNEKFKGRFTLSADTSKSTAYLQMNSLRAEDTAVYYCARRGSYYAMDYWGQGTLVTVSS
VL: DIQMTQSPSSLSASVGDRVTITCRSSQSLVHSNGIPYLHWYQQKPGKAPKLLIYRVSNRFSGVPSRFSGSGSGTDFTLTISSLQPEDFATYYCSQGTHVPPTFGQGTKVEIK
B17: tilvestamab scFv-osmY Y103S (scFv, V domains shown)
VH: EVQLVESGGGLVQPGGSLRLSCAASGYSFTDFYINWVRQAPGKGLEWVARIFPGGDNTYYNEKFKGRFTLSADTSKSTAYLQMNSLRAEDTAVYYCARRGLSYAMDYWGQGTLVTVSS
VL: DIQMTQSPSSLSASVGDRVTITCRSSQSLVHSNGIPYLHWYQQKPGKAPKLLIYRVSNRFSGVPSRFSGSGSGTDFTLTISSLQPEDFATYYCSQGTHVPPTFGQGTKVEIK
B18: tilvestamab scFv-osmY P238A (scFv, V domains shown)
VH: EVQLVESGGGLVQPGGSLRLSCAASGYSFTDFYINWVRQAPGKGLEWVARIFPGGDNTYYNEKFKGRFTLSADTSKSTAYLQMNSLRAEDTAVYYCARRGLYYAMDYWGQGTLVTVSS
VL: DIQMTQSPSSLSASVGDRVTITCRSSQSLVHSNGIPYLHWYQQKPGKAPKLLIYRVSNRFSGVPSRFSGSGSGTDFTLTISSLQPEDFATYYCSQGTHVPATFGQGTKVEIK
B19: tilvestamab scFv-osmY Y108A (scFv, V domains shown)
VH: EVQLVESGGGLVQPGGSLRLSCAASGYSFTDFYINWVRQAPGKGLEWVARIFPGGDNTYYNEKFKGRFTLSADTSKSTAYLQMNSLRAEDTAVYYCARRGLYYAMDAWGQGTLVTVSS
VL: DIQMTQSPSSLSASVGDRVTITCRSSQSLVHSNGIPYLHWYQQKPGKAPKLLIYRVSNRFSGVPSRFSGSGSGTDFTLTISSLQPEDFATYYCSQGTHVPPTFGQGTKVEIK
B20: tilvestamab scFv-osmY F33Y (scFv, V domains shown)
VH: EVQLVESGGGLVQPGGSLRLSCAASGYSFTDYYINWVRQAPGKGLEWVARIFPGGDNTYYNEKFKGRFTLSADTSKSTAYLQMNSLRAEDTAVYYCARRGLYYAMDYWGQGTLVTVSS
VL: DIQMTQSPSSLSASVGDRVTITCRSSQSLVHSNGIPYLHWYQQKPGKAPKLLIYRVSNRFSGVPSRFSGSGSGTDFTLTISSLQPEDFATYYCSQGTHVPPTFGQGTKVEIK

biological target: human AXL Ig1 domain fused to human Fc (Homo sapiens, UniProt P30530); test: BLI

Row | Binder | binding result
1 | B1 | binds
2 | B2 | binds
3 | B3 | binds
4 | B4 | binds
5 | B5 | binds
6 | B6 | binds
7 | B7 | binds
8 | B8 | binds
9 | B9 | binds
10 | B10 | binds
11 | B11 | binds
12 | B12 | binds
13 | B13 | binds
14 | B14 | binds
15 | B15 | binds
16 | B16 | binds
17 | B17 | binds
18 | B18 | binds
19 | B19 | binds
20 | B20 | binds
